Measurements as given in publication PMC10173277.
Where two headings read alike, the source gives them in different places.

Experiments:
[1] = target: collagen type I, bovine tendon, as absorbable collagen sponge (ACS) (bovine) (UniProt P02453); experiment: absorption and release from a collagen sponge, protein in the supernatant by micro-BCA; ACS (150 μL) treated with the fragment in PBS for 1 h at room temperature (75 μg; for ColG-FNIII12-14 also 37.5 and 15 μg); release into 150 μL PBS at 37 °C, supernatant taken and PBS refreshed at 36, 60, 120 h
[2] = target: collagen type I, bovine tendon, as absorbable collagen sponge (ACS) (bovine) (UniProt P02453)
[3] = target: collagen type I, bovine tendon, as absorbable collagen sponge (ACS) (bovine) (UniProt P02453); remark: listed apart in the source
[4] = target: ColG-FNIII12-14 treated collagen scaffold (Clostridium histolyticum | not stated | bovine) (UniProt P02453); experiment: absorption and release of fluorescent rhBMP-2 from a collagen sponge, fluorescence of the supernatant; Dylight 488 rhBMP-2 (0.1, 0.5, 1, 2 μg/mL) incubated 1 h at 37 °C with ACS with or without ColG-FNIII12-14; release into PBS at 37 °C, supernatant read and PBS refreshed at 36, 60, 120 h

UniProt P02453, sequence (P02453 162-1217, chain 1 of 2): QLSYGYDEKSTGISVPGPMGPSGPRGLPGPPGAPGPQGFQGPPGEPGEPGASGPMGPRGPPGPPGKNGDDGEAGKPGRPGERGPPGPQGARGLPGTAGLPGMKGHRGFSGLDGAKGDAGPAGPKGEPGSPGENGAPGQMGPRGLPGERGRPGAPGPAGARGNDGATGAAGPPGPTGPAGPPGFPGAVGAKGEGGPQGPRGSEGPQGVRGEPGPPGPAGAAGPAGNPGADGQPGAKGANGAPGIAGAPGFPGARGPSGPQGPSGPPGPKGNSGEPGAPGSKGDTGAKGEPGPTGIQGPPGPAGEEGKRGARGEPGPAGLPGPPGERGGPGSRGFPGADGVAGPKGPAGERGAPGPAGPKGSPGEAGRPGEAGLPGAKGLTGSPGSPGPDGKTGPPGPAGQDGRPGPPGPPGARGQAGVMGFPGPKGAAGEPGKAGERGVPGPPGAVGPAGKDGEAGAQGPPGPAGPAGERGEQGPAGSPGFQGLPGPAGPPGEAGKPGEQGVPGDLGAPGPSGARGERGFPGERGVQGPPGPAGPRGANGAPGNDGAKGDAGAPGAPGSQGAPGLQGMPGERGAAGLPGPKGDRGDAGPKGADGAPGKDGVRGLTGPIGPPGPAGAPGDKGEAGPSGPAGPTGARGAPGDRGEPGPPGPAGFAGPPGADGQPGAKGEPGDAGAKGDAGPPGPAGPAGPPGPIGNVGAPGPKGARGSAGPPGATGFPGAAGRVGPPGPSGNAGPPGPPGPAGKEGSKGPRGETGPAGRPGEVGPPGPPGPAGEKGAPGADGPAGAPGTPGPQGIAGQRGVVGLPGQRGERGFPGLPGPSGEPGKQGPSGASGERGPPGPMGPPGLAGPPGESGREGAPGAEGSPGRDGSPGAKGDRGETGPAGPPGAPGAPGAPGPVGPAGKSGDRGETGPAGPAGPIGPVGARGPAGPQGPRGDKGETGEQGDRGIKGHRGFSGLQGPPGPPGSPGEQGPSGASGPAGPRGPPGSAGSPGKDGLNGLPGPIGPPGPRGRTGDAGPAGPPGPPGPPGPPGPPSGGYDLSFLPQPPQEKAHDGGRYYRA
UniProt P02453, sequence (P02465 80-1117, chain 2 of 2, further chain): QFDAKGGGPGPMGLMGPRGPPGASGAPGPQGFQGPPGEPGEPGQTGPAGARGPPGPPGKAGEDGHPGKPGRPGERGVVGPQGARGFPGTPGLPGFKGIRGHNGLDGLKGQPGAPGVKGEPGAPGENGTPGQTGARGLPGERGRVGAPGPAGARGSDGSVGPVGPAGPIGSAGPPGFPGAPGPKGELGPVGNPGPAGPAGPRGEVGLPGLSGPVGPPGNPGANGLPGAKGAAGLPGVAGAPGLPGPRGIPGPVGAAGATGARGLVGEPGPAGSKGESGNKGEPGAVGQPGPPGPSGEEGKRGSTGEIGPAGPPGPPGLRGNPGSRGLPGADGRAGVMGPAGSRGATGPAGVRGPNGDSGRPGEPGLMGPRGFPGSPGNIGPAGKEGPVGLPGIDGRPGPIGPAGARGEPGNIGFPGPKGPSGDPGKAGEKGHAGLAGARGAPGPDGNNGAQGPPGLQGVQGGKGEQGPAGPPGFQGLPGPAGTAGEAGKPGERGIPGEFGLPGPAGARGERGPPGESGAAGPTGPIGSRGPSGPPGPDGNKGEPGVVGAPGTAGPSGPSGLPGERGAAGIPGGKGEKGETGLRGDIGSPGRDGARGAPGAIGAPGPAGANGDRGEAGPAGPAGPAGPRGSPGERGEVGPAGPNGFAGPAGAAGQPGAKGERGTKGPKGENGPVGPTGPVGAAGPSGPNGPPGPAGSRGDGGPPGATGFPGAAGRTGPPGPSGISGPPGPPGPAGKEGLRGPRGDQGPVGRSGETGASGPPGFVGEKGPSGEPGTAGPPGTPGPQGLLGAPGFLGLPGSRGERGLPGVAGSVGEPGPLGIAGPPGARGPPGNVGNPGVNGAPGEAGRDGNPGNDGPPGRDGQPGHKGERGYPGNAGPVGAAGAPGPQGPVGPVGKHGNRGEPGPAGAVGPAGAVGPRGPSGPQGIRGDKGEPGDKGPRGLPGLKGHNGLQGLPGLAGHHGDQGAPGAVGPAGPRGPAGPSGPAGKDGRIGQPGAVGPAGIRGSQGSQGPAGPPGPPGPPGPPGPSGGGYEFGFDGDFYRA

Work on PLGF-FNIII12-14 protein fragment yielded a percent of the absorbed fragment remaining bound after 120 h [1] of 10%.

ColG-FNIII12-14 protein fragment showed a percent of the absorbed fragment remaining bound after 120 h [1] of 43%.

Molecule ColH-FNIII12-14 protein fragment has a percent of the absorbed fragment remaining bound after 120 h [2] of 10% and an amount of fragment remaining on the ACS after 120 h (pmol per 1 mg of collagen) [3] of 90.

B1: recombinant human bone morphogenic protein 2, tagged with Dylight 488 (ligand)
chain: QAKHKQRKRLKSSCKRHPLYVDFSDVGWNDWIVAPPGYHAFYCHGECPFPLADHLNSTNHAIVQTLVNSVNSKIPKACCVPTELSAISMLYLDENEKVVLKNYQDMVVEGCGCR
modifications: Dylight 488 (amino reactive NHS ester dye)
B1 showed a percent of rhBMP-2 absorbed [4] of 30 to 32% and a percent of the absorbed rhBMP-2 retained after 120 h [4] of 33%.
